# IntAct's records for PubMed 21505799
# B1: E3 ubiquitin-protein ligase NHLRC1 (Homo sapiens), Q6VVB1 (parent)
# chain: MAAEASESGPALHELMREAEISLLECKVCFEKFGHRQQRRPRNLSCGHVVCLACVAALAHPRTLALECPFCRRACRGCDTSDCLPVLHLIELLGSALRQSPAAHRAAPSAPGALTCHHTFGGWGTLVNPTGLALCPKTGRVVVVHDGRRRVKIFDSGGGCAHQFGEKGDAAQDIRYPVDVTITNDCHVVVTDAGDRSIKVFDFFGQIKLVIGGQFSLPWGVETTPQNGIVVTDAEAGSLHLLDVDFAEGVLRRTERLQAHLCNPRGVAVSWLTGAIAVLEHPLALGTGVCSTRVKVFSSSMQLVGQVDTFGLSLYFPSKITASAVTFDHQGNVIVADTSGPAILCLGKPEEFPVPKPMVTHGLSHPVALTFTKENSLLVLDTASHSIKVYKVDWG
# partner: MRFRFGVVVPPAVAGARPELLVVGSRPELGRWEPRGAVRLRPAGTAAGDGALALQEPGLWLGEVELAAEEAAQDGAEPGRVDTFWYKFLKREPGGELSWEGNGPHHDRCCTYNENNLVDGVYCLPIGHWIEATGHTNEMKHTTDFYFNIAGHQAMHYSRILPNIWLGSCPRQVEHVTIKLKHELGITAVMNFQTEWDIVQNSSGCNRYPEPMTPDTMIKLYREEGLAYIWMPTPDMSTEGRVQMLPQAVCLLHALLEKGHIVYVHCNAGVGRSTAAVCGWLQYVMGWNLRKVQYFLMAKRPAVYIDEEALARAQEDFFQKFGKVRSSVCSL
# Variants of: B1
# Conditions: with epm2a_human EPM2A
row,Variant,effect of a mutation on the interaction
1,P69A,decreasing interaction
2,L261P,disrupting interaction
3,C46Y,disrupting interaction
4,D146N,decreasing interaction
